PMC12604781 (PLOS Pathogens, 2025)

Biological target: SUMO-PRV peptide AB (pseudorabies virus (PRV))
Test: ITC

“pcGAS^CT (C-terminus, catalytic domain of porcine cGAS) (domain or fragment)” gave a Kd of 2920 nM.
